Test results as given in patent publication EP3443010B1 (Ose Immunotherapeutics, dated 2024).
Where “and” joins values, the source holds several entries; their conditions need not be identical. Equal values may be shown once.

Tests used:
[1] = target: T1, Recombinant hSIRPb-His (Antibodies-online, reference ABIN3077231) (human, UniProt Q5TFQ8 30-371); assay: Blitz (BLI), SIRPb-His on Ni-NTA biosensor, antibody at 20 ug/mL
T1 construct: also called human SIRPb recombinant protein (Blitz); not shown: His tag (histidine tail)
T1 sequence (Q5TFQ8 30-371): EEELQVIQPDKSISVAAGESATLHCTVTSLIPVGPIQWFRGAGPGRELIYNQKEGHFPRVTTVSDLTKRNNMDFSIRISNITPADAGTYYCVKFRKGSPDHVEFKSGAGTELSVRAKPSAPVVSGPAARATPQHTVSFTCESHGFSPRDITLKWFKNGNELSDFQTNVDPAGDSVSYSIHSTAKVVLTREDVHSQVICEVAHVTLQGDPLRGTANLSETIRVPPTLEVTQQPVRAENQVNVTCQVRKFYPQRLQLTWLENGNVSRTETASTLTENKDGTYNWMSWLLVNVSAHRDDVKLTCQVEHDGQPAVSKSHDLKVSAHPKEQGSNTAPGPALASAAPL

[2] = target: T2, Recombinant hSIRPg-His (Sino Biologicals, reference 11828-H08H) (human, UniProt Q9P1W8 29-360); assay: Blitz (BLI), SIRPg-His on Ni-NTA biosensor, antibody at 20 ug/mL
T2 construct: also called human SIRPg recombinant protein; not shown: His tag (histidine tail)
T2 sequence (Q9P1W8 29-360 limits assumed): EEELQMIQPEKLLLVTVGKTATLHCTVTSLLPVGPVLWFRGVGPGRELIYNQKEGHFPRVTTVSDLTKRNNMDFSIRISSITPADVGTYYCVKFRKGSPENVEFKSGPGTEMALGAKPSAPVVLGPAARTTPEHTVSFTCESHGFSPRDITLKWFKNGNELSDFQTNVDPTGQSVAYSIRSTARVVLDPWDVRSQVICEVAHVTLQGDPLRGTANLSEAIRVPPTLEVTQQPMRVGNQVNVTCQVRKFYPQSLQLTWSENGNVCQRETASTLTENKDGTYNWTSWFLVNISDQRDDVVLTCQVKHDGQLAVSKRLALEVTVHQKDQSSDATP

[3] = target: T3, SIRPg on peripheral human CD3+ T cells (human, UniProt Q9P1W8 29-387); assay: flow cytometry on human CD3+ T cells, percent positive cells
T3 construct: whole, on cells; also called T cells that are known to express SIRPγ; human T cells
T3 sequence (Q9P1W8 29-387): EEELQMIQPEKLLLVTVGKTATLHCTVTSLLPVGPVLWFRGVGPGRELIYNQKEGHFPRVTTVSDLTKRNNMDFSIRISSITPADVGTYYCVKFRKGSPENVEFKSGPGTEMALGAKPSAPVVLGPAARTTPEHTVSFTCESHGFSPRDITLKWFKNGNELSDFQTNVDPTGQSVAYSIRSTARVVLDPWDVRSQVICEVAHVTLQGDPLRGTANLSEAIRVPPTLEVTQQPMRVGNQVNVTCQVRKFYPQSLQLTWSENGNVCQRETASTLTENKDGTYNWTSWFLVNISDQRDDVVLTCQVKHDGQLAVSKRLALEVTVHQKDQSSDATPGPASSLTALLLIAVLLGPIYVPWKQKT

[4] = target: T4, recombinant hSIRPa (Sino Biologicals, reference 10975-H08H) (human, UniProt P78324 31-370); assay: ELISA, hSIRPa (Sino 10975-H08H) coated at 0.5 ug/ml, anti-mouse Fc detection
T4 construct: A different catalogue item from m21; also called SIRPa-His (ELISA with the mouse antibodies)
T4 sequence (P78324 other isoform, or with tags, fused parts or gaps H08H H08H): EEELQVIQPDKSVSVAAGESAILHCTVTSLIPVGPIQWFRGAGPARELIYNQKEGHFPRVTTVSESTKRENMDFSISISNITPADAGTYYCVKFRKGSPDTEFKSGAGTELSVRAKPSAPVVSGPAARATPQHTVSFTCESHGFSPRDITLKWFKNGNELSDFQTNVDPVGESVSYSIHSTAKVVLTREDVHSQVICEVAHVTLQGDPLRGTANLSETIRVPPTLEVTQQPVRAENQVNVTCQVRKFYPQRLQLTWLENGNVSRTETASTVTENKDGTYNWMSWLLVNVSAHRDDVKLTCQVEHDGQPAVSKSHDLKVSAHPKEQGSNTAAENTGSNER

Row | binding result [1] | Binder | other results
1 | binds | HFLA (antibody, human IgG4 S228P, kappa, V domains shown, also called humanized 18D5 variant HFLA) VH: EVQLVQSGAEVKKPGESLRISCKASGYSFTSYWVHWVRQMPGKGLEWMGNIDPSDSDTHYSPSFQGHVTLSVDKSISTAYLQLSSLKASDTAMYYCVRGGTGTMAYFAYWGQGTLVTVSS VL: DVVMTQSPLSLPVTLGQPASISCRSSQSLVHSYGNTYLYWYQQRPGQSPRLLIYRVSNRFSGVPDRFSGSGSGTDFTLKISRVEAEDVGVYFCFQGTHVPYTFGGGTKVEIKR | –
2 | binds | HFLB (antibody, human IgG4 S228P, kappa, V domains shown, also called humanized 18D5 variant HFLB) VH: EVQLVQSGAEVKKPGESLRISCKASGYSFTSYWVHWVRQMPGKGLEWMGNIDPSDSDTHYSPSFQGHVTLSVDKSISTAYLQLSSLKASDTAMYYCVRGGTGTMAYFAYWGQGTLVTVSS VL: DVVMTQSPLSLPVTLGQPASISCRSSQSLVHSYGNTYLYWFQQRPGQSPRLLIYRVSNRFSGVPDRFSGSGSGTDFTLKISRVEAEDVGVYYCFQGTHVPYTFGGGTKVEIKR | Kd [2]: 104 nM
3 | binds | HEFLB (antibody, human IgG4 S228P, kappa, V domains shown, also called humanized 18D5 variant HEFLB; anti-SIRPa HEFLB) VH: EVQLVQSGAEVKKPGESLRISCKASGYSFTSYWVHWVRQMPGKGLEWMGNIDPSDSDTHYSPSFQGHVTLSVDKSISTAYLQLSSLKASDTAMYYCVRGGTGTLAYFAYWGQGTLVTVSS VL: DVVMTQSPLSLPVTLGQPASISCRSSQSLVHSYGNTYLYWFQQRPGQSPRLLIYRVSNRFSGVPDRFSGSGSGTDFTLKISRVEAEDVGVYYCFQGTHVPYTFGGGTKVEIKR | –
4 | binds | HEFLA (antibody, human IgG4 S228P, kappa, V domains shown, also called humanized 18D5 variant HEFLA) VH: EVQLVQSGAEVKKPGESLRISCKASGYSFTSYWVHWVRQMPGKGLEWMGNIDPSDSDTHYSPSFQGHVTLSVDKSISTAYLQLSSLKASDTAMYYCVRGGTGTLAYFAYWGQGTLVTVSS VL: DVVMTQSPLSLPVTLGQPASISCRSSQSLVHSYGNTYLYWYQQRPGQSPRLLIYRVSNRFSGVPDRFSGSGSGTDFTLKISRVEAEDVGVYFCFQGTHVPYTFGGGTKVEIKR | –
5 | binds | chimeric mouse/human 18D5 antibody (antibody, human IgG4 S228P, kappa, also called chimeric 18D5; the chimeric antibody) heavy: not shown light: DVVMTQTPLSLPVSLGDQASISCRSSQSLVHSYGNTYLYWYLQKPGQSPKLLIYRVSNRFSGVPDRFSGSGSGTDFTLKISRVEAEDLGVYFCFQGTHVPYTFGSGTKLEIKRTVAAPSVFIFPPSDEQLKSGTASVVCLLNNFYPREAKVQWKVDNALQSGNSQESVTEQDSKDSTYSLSSTLTLSKADYEKHKVYACEVTHQGLSSPVTKSFNRGEC | binding result [3]: no binding (tested: 10 micrograms/ml)
6 | – | mouse antibody 18D5 (antibody, mouse IgG2b, kappa, also called m18D5; m18D5 clone) heavy: QVQLQQPGAELVRPGSSVKLSCKASGYTFTSYWVHWVKQRPIQGLEWIGNIDPSDSDTHYNQKFKDKASLTVDKSSSTAYMQLSSLTFEDSAVYYCVRGGTGTMAWFAYWGQGTLVTVSAAKTTPPSVYPLAPGCGDTTGSSVTLGCLVKGYFPESVTVTWNSGSLSSSVHTFPALLQSGLYTMSSSVTVPSSTWPSQTVTCSVAHPASSTTVDKKLEPSGPISTINPCPPCKECHKCPAPNLEGGPSVFIFPPNIKDVLMISLTPKVTCVVVDVSEDDPDVQISWFVNNVEVHTAQTQTHREDYNSTIRVVSTLPIQHQDWMSGKEFKCKVNNKDLPSPIERTISKIKGLVRAPQVYILPPPAEQLSRKDVSLTCLVVGFNPGDISVEWTSNGHTEENYKDTAPVLDSDGSYFIYSKLNMKTSKWEKTDSFSCNVRHEGLKNYYLKKTISRSPGK light: DVVMTQTPLSLPVSLGDQASISCRSSQSLVHSYGNTYLYWYLQKPGQSPKLLIYRVSNRFSGVPDRFSGSGSGTDFTLKISRVEAEDLGVYFCFQGTHVPYTFGSGTKLEIKRADAAPTVSIFPPSSEQLTSGGASVVCFLNNFYPKDINVKWKIDGSERQNGVLNSWTDQDSKDSTYSMSSTLTLTKDEYERHNSYTCEATHKTSTSPIVKSFNRNEC | EC50 [4]: 0.06 nM and 0.009 µg/mL
